B1: NRC3_wobSeed53_DR2_T21C_o1 (dsDNA)
DNA 1: GCCCTTACGGGTCACGAGGTCATAGCACGACGAGCGGCGATTGACAGCGTAGAATGAAGG
DNA 2: CCTTCATTCTACGCTGTCAATCGCCGCTCGTCGTGCTATGACCTCGTGACCCGTAAGGGC
B2: NRC3_wobSeed58_DR2_G14A_o1 (dsDNA)
DNA 1: GCATCGAAAGGTCATGAGGTGAGTATACAGAAAGGCGCGATTGACAGCGTAGAATGAAGG
DNA 2: CCTTCATTCTACGCTGTCAATCGCGCCTTTCTGTATACTCACCTCATGACCTTTCGATGC
B3: NRC3_wobSeed5_DR0_C8G_o1 (dsDNA)
DNA 1: GCCCTTAGGGGTCAAGGTTATAGCACGGGTGGTACGGCGATTGACAGCGTAGAATGAAGG
DNA 2: CCTTCATTCTACGCTGTCAATCGCCGTACCACCCGTGCTATAACCTTGACCCCTAAGGGC
B4: NRC3_wobSeed18_DR0_A8G_o1 (dsDNA)
DNA 1: GCGATACGGGGTCAAGGCCAGAGTACGCGTATTGATGCGATTGACAGCGTAGAATGAAGG
DNA 2: CCTTCATTCTACGCTGTCAATCGCATCAATACGCGTACTCTGGCCTTGACCCCGTATCGC
B5: NRC3_random_hg19_33_o1 (dsDNA)
DNA 1: GCATCTGCATAGAGCTAGAGCTATTGATTCAAAGAGGCGATTGACAGCGTAGAATGAAGG
DNA 2: CCTTCATTCTACGCTGTCAATCGCCTCTTTGAATCAATAGCTCTAGCTCTATGCAGATGC
B6: NRC3_random_hg19_391_o1 (dsDNA)
DNA 1: GCTAGATATGAGTCTGGCTTGCTGCTATCTACTTCAGCGATTGACAGCGTAGAATGAAGG
DNA 2: CCTTCATTCTACGCTGTCAATCGCTGAAGTAGATAGCAGCAAGCCAGACTCATATCTAGC
B7: NRC3_wobSeed72_DR2_C25G_o1 (dsDNA)
DNA 1: GCTCGAGTAGGTTACGGGGGCATTGAGGGATGAAGAGCGATTGACAGCGTAGAATGAAGG
DNA 2: CCTTCATTCTACGCTGTCAATCGCTCTTCATCCCTCAATGCCCCCGTAACCTACTCGAGC
B8: NRC3_random_hg19_64_o1 (dsDNA)
DNA 1: GCAATCCAATTGGAGGTGCACTCGTCTAAGTGGTCCGCGATTGACAGCGTAGAATGAAGG
DNA 2: CCTTCATTCTACGCTGTCAATCGCGGACCACTTAGACGAGTGCACCTCCAATTGGATTGC
B9: NRC3_random_hg19_341_o1 (dsDNA)
DNA 1: GCCCCAGATGACGGGTTGATATGGGCAGCAAACCGCGCGATTGACAGCGTAGAATGAAGG
DNA 2: CCTTCATTCTACGCTGTCAATCGCGCGGTTTGCTGCCCATATCAACCCGTCATCTGGGGC
B10: NRC3_wobSeed85_DR3_G15T_o1 (dsDNA)
DNA 1: GCCGTCCAAGGTCATAGAGGTCAGTGAATGCCGAGTGCGATTGACAGCGTAGAATGAAGG
DNA 2: CCTTCATTCTACGCTGTCAATCGCACTCGGCATTCACTGACCTCTATGACCTTGGACGGC
B11: NRC3_random_hg19_58_o1 (dsDNA)
DNA 1: GCAAGACTCCTGGCTCTGATTCTAAACTAAACATAGGCGATTGACAGCGTAGAATGAAGG
DNA 2: CCTTCATTCTACGCTGTCAATCGCCTATGTTTAGTTTAGAATCAGAGCCAGGAGTCTTGC
B12: NRC3_random_hg19_186_o1 (dsDNA)
DNA 1: GCTTTCGTTACTGTAGCCTTGTAGTATAGTTTGAAGGCGATTGACAGCGTAGAATGAAGG
DNA 2: CCTTCATTCTACGCTGTCAATCGCCTTCAAACTATACTACAAGGCTACAGTAACGAAAGC
B13: NRC3_wobSeed97_DR4_C7A_o1 (dsDNA)
DNA 1: GCCAAAATAGGTCACGAAAGGTCAAAGTCGAATGACGCGATTGACAGCGTAGAATGAAGG
DNA 2: CCTTCATTCTACGCTGTCAATCGCGTCATTCGACTTTGACCTTTCGTGACCTATTTTGGC
B14: NRC3_wobSeed41_DR1_A15G_o1 (dsDNA)
DNA 1: GCATATGTAGGTTAGGGGTCATTCAGGTTGGTTCGCGCGATTGACAGCGTAGAATGAAGG
DNA 2: CCTTCATTCTACGCTGTCAATCGCGCGAACCAACCTGAATGACCCCTAACCTACATATGC
B15: NRC3_wobSeed29_DR1_C8A_o1 (dsDNA)
DNA 1: GCGCTTAAGGGTCAAAGGTTATAGCATGAATAGAATGCGATTGACAGCGTAGAATGAAGG
DNA 2: CCTTCATTCTACGCTGTCAATCGCATTCTATTCATGCTATAACCTTTGACCCTTAAGCGC
B16: NRC3_wobSeed99_DR4_T22G_o1 (dsDNA)
DNA 1: GCTCTCGGAGGACACGAAAGGGCAGAGCTCGACATCGCGATTGACAGCGTAGAATGAAGG
DNA 2: CCTTCATTCTACGCTGTCAATCGCGATGTCGAGCTCTGCCCTTTCGTGTCCTCCGAGAGC
B17: NRC3_wobSeed124_DR5_C12T_o1 (dsDNA)
DNA 1: GCCCTACTGGGTCATTCAGAGGTCATTGATCATATGGCGATTGACAGCGTAGAATGAAGG
DNA 2: CCTTCATTCTACGCTGTCAATCGCCATATGATCAATGACCTCTGAATGACCCAGTAGGGC
B18: NRC3_wobSeed89_DR3_G16A_o1 (dsDNA)
DNA 1: GCCTATGTAGGTTAAAGGGGTCATTCAGTTTGAAAGGCGATTGACAGCGTAGAATGAAGG
DNA 2: CCTTCATTCTACGCTGTCAATCGCCTTTCAAACTGAATGACCCCTTTAACCTACATAGGC
B19: NRC3_wobSeed26_DR1_A23G_o1 (dsDNA)
DNA 1: GCTCTAGTTGGTCAAAGGTCACGCACTCGAAATGCGGCGATTGACAGCGTAGAATGAAGG
DNA 2: CCTTCATTCTACGCTGTCAATCGCCGCATTTCGAGTGCGTGACCTTTGACCAACTAGAGC

molecular target: RXRa (Homo sapiens, UniProt P19793); test: no ligand; PBM; 180 nM; PBS pH 7.4, 2% milk, 0.02% Triton X-100, 1 mM DTT, BSA, 0.4 mg/ml salmon testes DNA; settings: tags: His cleaved; chain copies: 2; label: surface-attached array probe
Sequence (P19793 whole entry): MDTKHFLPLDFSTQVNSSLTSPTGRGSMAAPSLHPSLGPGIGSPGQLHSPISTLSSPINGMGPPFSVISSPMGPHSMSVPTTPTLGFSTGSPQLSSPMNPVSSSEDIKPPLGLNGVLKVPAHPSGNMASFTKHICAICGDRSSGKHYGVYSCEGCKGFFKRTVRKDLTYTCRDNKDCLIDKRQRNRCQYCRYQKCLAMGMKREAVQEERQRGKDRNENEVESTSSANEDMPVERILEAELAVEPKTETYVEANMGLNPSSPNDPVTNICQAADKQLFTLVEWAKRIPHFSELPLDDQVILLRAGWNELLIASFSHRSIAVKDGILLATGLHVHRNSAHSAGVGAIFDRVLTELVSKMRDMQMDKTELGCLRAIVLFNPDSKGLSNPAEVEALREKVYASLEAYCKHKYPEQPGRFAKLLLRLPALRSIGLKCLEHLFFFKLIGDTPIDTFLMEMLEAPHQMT

Binder	binding signal
B1	8.57 PBM z-score against 500 random probes
B2	8.9 PBM z-score against 500 random probes
B3	9.14 PBM z-score against 500 random probes
B4	8.69 PBM z-score against 500 random probes

molecular target: RARa:RXRa (Homo sapiens, UniProt P10276;P19793 full;full); test: no ligand; PBM; 270 nM : 90 nM RXRa; PBS pH 7.4, 2% milk, 0.02% Triton X-100, 1 mM DTT, BSA, 0.4 mg/ml salmon testes DNA; settings: tags: His kept;His cleaved; copies: 1;1; label: surface-attached array probe
Sequence (P10276 whole entry, chain 1 of 2): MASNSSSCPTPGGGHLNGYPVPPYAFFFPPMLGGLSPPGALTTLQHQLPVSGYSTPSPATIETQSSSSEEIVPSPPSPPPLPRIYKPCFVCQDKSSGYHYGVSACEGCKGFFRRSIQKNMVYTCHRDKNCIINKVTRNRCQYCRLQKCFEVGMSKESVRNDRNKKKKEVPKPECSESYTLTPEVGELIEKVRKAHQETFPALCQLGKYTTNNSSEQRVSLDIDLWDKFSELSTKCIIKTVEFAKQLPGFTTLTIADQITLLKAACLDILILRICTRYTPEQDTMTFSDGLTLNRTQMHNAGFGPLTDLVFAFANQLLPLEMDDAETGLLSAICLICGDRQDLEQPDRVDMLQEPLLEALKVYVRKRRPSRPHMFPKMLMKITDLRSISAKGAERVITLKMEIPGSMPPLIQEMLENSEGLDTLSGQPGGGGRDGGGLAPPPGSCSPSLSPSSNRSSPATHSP
Sequence (P19793 whole entry, chain 2 of 2): as the sequence (P19793 whole entry) above
Method in brief: (§1)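 On custom Agilent 4×180K arrays, double-stranded probes with 34-nt variable regions carried direct-repeat seeds, single-nucleotide variants, half-site ablations or random human genomic background. Ligand-free nuclear receptor dimers were applied for 1 h, and binding was read with antibodies against each partner (one per run). Binding z-scores come from regression-normalized fluorescence, with the random background probes as reference.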

Binder	binding signal
B5	-1.05 PBM z-score against 500 random probes
B6	-0.46 PBM z-score against 500 random probes
B7	3.03 PBM z-score against 500 random probes
B8	-0.24 PBM z-score against 500 random probes
B9	-0.22 PBM z-score against 500 random probes
B10	7.13 PBM z-score against 500 random probes
B11	-0.89 PBM z-score against 500 random probes
B12	0.29 PBM z-score against 500 random probes
B1	8.05 PBM z-score against 500 random probes
B13	8.32 PBM z-score against 500 random probes
B14	7.24 PBM z-score against 500 random probes
B15	9.1 PBM z-score against 500 random probes
B16	0.47 PBM z-score against 500 random probes
B2	7.09 PBM z-score against 500 random probes
B17	7.55 PBM z-score against 500 random probes
B3	7.21 PBM z-score against 500 random probes
B4	7.56 PBM z-score against 500 random probes
B18	7.03 PBM z-score against 500 random probes
B19	8.13 PBM z-score against 500 random probes

molecular target: PXR:RXRa (Homo sapiens, UniProt O75469;P19793 full;full); test: as above; settings: tags: His kept;His cleaved; copies: 1;1; label: surface-attached array probe
Sequence (O75469 whole entry, chain 1 of 2): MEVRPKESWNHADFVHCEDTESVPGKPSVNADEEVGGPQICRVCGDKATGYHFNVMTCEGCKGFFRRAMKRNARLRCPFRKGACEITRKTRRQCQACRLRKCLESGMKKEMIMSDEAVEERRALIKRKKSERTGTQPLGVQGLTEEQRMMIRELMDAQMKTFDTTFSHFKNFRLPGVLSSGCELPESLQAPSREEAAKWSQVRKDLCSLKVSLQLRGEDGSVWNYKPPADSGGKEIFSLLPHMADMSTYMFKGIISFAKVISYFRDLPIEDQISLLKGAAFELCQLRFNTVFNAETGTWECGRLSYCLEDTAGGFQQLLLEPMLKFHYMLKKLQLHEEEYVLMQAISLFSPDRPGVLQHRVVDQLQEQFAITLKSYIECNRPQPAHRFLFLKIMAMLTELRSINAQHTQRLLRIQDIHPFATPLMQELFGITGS
Sequence (P19793 whole entry, chain 2 of 2): as the sequence (P19793 whole entry) above
Method in brief: as §1

Binder	binding signal
B5	-1.09 PBM z-score against 500 random probes
B6	-0.47 PBM z-score against 500 random probes
B7	3.09 PBM z-score against 500 random probes
B8	-0.06 PBM z-score against 500 random probes
B9	-0.3 PBM z-score against 500 random probes
B10	6.83 PBM z-score against 500 random probes
B11	-0.84 PBM z-score against 500 random probes
B12	0.22 PBM z-score against 500 random probes
B1	6.58 PBM z-score against 500 random probes
B13	7.78 PBM z-score against 500 random probes
B14	6.45 PBM z-score against 500 random probes
B15	6.86 PBM z-score against 500 random probes
B16	0.23 PBM z-score against 500 random probes
B17	6.43 PBM z-score against 500 random probes
B4	6.46 PBM z-score against 500 random probes
B18	6.77 PBM z-score against 500 random probes
B19	6.52 PBM z-score against 500 random probes

molecular target: FXR:RXRa (Homo sapiens, UniProt Q96RI1;P19793 full;full); test: as above; settings: tags: His kept;His cleaved; copies: 1;1; label: surface-attached array probe
Sequence (Q96RI1 whole entry, chain 1 of 2): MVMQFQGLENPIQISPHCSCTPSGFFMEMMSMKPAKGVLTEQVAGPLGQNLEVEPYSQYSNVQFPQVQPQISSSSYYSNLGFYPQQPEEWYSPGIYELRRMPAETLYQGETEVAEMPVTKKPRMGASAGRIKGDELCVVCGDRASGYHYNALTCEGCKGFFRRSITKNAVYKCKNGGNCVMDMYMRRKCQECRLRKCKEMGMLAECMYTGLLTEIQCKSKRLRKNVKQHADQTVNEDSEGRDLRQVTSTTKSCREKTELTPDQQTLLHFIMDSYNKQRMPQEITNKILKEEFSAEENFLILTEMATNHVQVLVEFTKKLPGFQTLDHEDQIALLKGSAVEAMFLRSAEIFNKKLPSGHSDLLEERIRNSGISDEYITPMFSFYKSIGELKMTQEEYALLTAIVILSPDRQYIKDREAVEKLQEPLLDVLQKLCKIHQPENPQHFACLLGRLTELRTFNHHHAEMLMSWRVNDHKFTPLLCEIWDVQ
Sequence (P19793 whole entry, chain 2 of 2): as the sequence (P19793 whole entry) above
Method in brief: as §1

Binder	binding signal
B10	7.72 PBM z-score against 500 random probes
B1	8.01 PBM z-score against 500 random probes
B13	8.43 PBM z-score against 500 random probes
B15	8.78 PBM z-score against 500 random probes
B2	8.53 PBM z-score against 500 random probes
B3	8.51 PBM z-score against 500 random probes
B4	8.08 PBM z-score against 500 random probes

molecular target: RARb:RXRa (Homo sapiens, UniProt P10826;P19793 full;full); test: as above; settings: tags: His kept;His cleaved; copies: 1;1; label: surface-attached array probe
Sequence (P10826 whole entry, chain 1 of 2): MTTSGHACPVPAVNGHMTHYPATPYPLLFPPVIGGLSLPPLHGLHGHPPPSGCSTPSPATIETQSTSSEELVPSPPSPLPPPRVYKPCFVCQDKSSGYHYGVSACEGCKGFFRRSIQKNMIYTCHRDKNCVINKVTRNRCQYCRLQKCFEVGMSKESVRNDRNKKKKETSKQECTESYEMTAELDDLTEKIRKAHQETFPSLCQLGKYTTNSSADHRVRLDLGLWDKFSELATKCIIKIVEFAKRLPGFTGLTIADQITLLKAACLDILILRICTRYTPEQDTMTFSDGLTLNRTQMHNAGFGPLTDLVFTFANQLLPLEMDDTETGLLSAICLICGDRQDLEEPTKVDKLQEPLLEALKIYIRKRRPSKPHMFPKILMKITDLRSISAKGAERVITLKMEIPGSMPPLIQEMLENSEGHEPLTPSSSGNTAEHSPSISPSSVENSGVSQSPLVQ
Sequence (P19793 whole entry, chain 2 of 2): as the sequence (P19793 whole entry) above
Method in brief: as §1

Binder	binding signal
B5	-1.35 PBM z-score against 500 random probes
B15	5.58 PBM z-score against 500 random probes
B2	6.03 PBM z-score against 500 random probes
B3	5.75 PBM z-score against 500 random probes
B19	5.6 PBM z-score against 500 random probes

molecular target: LXRa:RXRa (Homo sapiens, UniProt Q13133;P19793 full;full); test: as above; settings: tags: His kept;His cleaved; copies: 1;1; label: surface-attached array probe
Sequence (Q13133 whole entry, chain 1 of 2): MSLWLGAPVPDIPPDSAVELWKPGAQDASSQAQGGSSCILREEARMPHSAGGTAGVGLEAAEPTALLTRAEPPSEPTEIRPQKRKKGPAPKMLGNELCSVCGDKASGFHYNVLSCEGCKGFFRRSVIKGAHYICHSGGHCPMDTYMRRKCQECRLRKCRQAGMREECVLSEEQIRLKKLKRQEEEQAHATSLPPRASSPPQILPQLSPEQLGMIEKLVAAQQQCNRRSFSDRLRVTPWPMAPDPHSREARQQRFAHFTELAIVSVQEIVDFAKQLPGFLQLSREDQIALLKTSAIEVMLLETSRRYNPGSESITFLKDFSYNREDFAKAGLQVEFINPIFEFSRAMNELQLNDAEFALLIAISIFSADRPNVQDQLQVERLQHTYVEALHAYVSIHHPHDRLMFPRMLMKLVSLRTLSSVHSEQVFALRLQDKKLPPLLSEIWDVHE
Sequence (P19793 whole entry, chain 2 of 2): as the sequence (P19793 whole entry) above
Method in brief: as §1

Binder	binding signal
B2	6.98 PBM z-score against 500 random probes
B3	6.63 PBM z-score against 500 random probes

molecular target: LXRb:RXRa (Homo sapiens, UniProt P55055;P19793 full;full); test: as above; settings: tags: His kept;His cleaved; copies: 1;1; label: surface-attached array probe
Sequence (P55055 whole entry, chain 1 of 2): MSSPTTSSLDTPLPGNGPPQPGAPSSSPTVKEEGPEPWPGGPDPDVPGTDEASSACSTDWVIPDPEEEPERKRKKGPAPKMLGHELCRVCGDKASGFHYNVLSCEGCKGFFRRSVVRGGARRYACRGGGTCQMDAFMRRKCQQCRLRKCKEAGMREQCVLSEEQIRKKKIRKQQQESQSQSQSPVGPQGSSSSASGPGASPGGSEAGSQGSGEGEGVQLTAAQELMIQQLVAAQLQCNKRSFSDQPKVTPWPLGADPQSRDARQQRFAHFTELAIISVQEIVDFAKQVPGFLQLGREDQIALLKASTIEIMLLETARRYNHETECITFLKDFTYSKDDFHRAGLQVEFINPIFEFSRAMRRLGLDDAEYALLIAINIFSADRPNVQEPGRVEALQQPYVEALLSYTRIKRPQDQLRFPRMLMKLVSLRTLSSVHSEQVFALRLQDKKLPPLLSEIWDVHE
Sequence (P19793 whole entry, chain 2 of 2): as the sequence (P19793 whole entry) above
Method in brief: as §1

Binder	binding signal
B6	-0.73 PBM z-score against 500 random probes
B13	7.91 PBM z-score against 500 random probes
B14	5.79 PBM z-score against 500 random probes
B15	6.56 PBM z-score against 500 random probes
B2	5.92 PBM z-score against 500 random probes
B3	5.92 PBM z-score against 500 random probes
B4	5.96 PBM z-score against 500 random probes
B19	6.1 PBM z-score against 500 random probes

molecular target: RARg:RXRa (Homo sapiens, UniProt P13631;P19793 full;full); test: as above; settings: tags: His kept;His cleaved; copies: 1;1; label: surface-attached array probe
Sequence (P13631 whole entry, chain 1 of 2): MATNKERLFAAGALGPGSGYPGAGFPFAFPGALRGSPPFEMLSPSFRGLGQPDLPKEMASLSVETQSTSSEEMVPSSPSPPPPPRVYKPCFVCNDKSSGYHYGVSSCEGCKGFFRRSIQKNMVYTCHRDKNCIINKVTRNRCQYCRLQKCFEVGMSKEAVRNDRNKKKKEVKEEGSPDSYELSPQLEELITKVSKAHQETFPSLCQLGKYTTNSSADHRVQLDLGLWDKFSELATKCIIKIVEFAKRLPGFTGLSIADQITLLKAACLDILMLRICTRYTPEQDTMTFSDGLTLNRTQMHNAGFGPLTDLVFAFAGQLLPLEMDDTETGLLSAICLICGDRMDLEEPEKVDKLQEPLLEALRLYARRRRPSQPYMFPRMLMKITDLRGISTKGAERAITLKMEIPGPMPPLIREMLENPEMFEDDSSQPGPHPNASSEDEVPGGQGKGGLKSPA
Sequence (P19793 whole entry, chain 2 of 2): as the sequence (P19793 whole entry) above
Method in brief: as §1

Binder	binding signal
B1	7.59 PBM z-score against 500 random probes
B13	8.41 PBM z-score against 500 random probes
B15	7.9 PBM z-score against 500 random probes
B2	7.79 PBM z-score against 500 random probes
B17	8.13 PBM z-score against 500 random probes
B3	7.74 PBM z-score against 500 random probes
B19	7.77 PBM z-score against 500 random probes

molecular target: PPARa:RXRa (Homo sapiens, UniProt Q07869;P19793 full;full); test: as above; settings: tags: GST kept;His cleaved; copies: 1;1; label: surface-attached array probe
Sequence (Q07869 whole entry, chain 1 of 2): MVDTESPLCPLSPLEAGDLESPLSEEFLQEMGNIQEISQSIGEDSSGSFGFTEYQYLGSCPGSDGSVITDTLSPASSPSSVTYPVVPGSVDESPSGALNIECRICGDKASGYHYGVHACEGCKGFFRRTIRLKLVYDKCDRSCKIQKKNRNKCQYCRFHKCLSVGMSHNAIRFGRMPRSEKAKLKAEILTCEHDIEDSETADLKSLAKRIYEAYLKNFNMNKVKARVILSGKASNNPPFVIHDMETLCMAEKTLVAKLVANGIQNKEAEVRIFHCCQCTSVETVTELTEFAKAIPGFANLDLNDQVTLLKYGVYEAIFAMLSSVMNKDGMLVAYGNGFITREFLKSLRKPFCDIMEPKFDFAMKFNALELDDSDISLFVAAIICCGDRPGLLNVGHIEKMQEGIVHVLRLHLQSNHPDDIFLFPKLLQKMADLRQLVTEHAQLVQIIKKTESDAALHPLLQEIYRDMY
Sequence (P19793 whole entry, chain 2 of 2): as the sequence (P19793 whole entry) above
Method in brief: as §1

Binder	binding signal
B1	6.48 PBM z-score against 500 random probes
B2	6.95 PBM z-score against 500 random probes
B3	6.97 PBM z-score against 500 random probes
B4	6.56 PBM z-score against 500 random probes

molecular target: VDR:RXRa (Homo sapiens, UniProt P11473;P19793 full;full); test: as above; settings: tags: His kept;His cleaved; copies: 1;1; label: surface-attached array probe
Sequence (P11473 whole entry, chain 1 of 2): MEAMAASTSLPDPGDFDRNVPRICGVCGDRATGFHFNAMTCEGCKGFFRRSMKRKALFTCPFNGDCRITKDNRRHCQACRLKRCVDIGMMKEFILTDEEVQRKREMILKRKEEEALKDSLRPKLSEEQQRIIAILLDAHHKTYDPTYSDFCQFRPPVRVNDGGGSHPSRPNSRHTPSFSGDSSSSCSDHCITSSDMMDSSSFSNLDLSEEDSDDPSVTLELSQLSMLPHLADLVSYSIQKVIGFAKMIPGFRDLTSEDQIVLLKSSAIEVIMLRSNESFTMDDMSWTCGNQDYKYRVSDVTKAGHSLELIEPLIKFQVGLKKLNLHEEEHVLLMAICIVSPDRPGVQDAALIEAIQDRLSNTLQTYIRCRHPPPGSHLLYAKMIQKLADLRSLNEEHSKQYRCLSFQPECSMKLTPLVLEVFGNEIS
Sequence (P19793 whole entry, chain 2 of 2): as the sequence (P19793 whole entry) above
Method in brief: as §1

Binder	binding signal
B10	7.93 PBM z-score against 500 random probes
B1	6.6 PBM z-score against 500 random probes
B13	7.26 PBM z-score against 500 random probes
B14	6.69 PBM z-score against 500 random probes
B18	8.06 PBM z-score against 500 random probes
